Values belong to the binder of their own block, whether it stands above or below them.
Target: T1, XPO1 (human, UniProt O14980 1-1071)
T1 construct: Endogenous protein pulled down from iPSN nuclear lysates with mouse anti-XPO1 (Santa Cruz sc-74454) coupled to Protein G beads; also called CRM1; XPO1/CRM1
Experiment: co-immunoprecipitation with anti-XPO1 from iPSN nuclear lysates, western blot
Protocol: Nuclei were isolated from iPSNs as described above. The resulting nuclei pellet was lysed in 1 mL IP buffer by vortexing for 30-45 seconds. Nuclei lysates were centrifuged for 10 minutes at 2500 rpm and 4° C. to remove debris. Following centrifugation, the supernatant was transferred to a clean Eppendorf tube. 25 μL of the supernatant was added to μL 2× Laemmli buffer (BioRad) and set aside as protein input and an additional 25 μL supernatant was set aside on ice as RNA input. The remainder of the lysate was split equally between IgG and XPO1 antibody conjugated bead tubes. Lysates were incubated with beads with end over end rotation for 2 hours at 4° C. The unbound supernatant was discarded and immunoprecipitated complexes were washed 3×5 minutes in 200 μL IP buffer with end over end rotation at 4° C. Bead-IP complexes were resuspended in 200 μL IP buffer. 100 μL of each bead-IP complex sample was set aside for RNA analysis. For the remaining 100 μL, the supernatant was discarded and 50 μL 1× Laemmli buffer was added to bead-IP complexes. All RNA samples (including input) were added to 500 μL RLT Buffer (QIAGEN) and RNA isolation, cDNA synthesis, and qRT-PCR were performed as described below. Protein samples were analyzed by western blot as described below. Equal volumes of each sample (10 μL) were loaded in acrylamide gels. […]

T1 sequence (O14980 whole entry): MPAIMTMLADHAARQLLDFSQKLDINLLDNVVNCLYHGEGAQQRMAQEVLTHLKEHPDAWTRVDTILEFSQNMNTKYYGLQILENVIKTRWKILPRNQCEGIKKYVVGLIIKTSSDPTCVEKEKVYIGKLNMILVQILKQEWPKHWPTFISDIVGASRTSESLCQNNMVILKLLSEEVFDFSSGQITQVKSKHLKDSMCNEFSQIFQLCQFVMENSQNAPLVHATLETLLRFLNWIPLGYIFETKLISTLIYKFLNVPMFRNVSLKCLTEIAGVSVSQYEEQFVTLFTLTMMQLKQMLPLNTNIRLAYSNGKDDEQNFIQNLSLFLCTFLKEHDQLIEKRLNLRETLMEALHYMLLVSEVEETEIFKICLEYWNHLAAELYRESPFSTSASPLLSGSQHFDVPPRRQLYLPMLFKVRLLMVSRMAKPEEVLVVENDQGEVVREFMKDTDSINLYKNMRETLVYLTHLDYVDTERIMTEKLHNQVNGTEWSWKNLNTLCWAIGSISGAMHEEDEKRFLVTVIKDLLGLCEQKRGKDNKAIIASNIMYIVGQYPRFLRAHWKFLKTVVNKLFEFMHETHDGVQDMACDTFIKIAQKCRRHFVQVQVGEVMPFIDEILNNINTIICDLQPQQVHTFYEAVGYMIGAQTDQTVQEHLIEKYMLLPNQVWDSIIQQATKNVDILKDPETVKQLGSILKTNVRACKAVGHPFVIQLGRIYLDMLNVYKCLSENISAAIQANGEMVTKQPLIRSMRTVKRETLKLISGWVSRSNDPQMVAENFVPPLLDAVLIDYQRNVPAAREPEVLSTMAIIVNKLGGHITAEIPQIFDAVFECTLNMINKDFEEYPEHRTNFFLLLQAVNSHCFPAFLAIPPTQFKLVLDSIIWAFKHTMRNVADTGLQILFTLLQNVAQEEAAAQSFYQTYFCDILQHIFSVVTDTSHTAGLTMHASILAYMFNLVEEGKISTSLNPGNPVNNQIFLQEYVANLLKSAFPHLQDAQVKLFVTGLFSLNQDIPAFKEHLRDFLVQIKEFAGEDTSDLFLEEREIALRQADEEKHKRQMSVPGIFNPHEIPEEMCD

binding result: no binding
B1: Lamin B1 (other, human, UniProt P20700 2-583, looked up)
chain: ATATPVPPRMGSRAGGPTTPLSPTRLSRLQEKEELRELNDRLAVYIDKVRSLETENSALQLQVTEREEVRGRELTGLKALYETELADARRALDDTARERAKLQIELGKCKAEHDQLLLNYAKKESDLNGAQIKLREYEAALNSKDAALATALGDKKSLEGDLEDLKDQIAQLEASLAAAKKQLADETLLKVDLENRCQSLTEDLEFRKSMYEEEINETRRKHETRLVEVDSGRQIEYEYKLAQALHEMREQHDAQVRLYKEELEQTYHAKLENARLSSEMNTSTVNSAREELMESRMRIESLSSQLSNLQKESRACLERIQELEDLLAKEKDNSRRMLTDKEREMAEIRDQMQQQLNDYEQLLDVKLALDMEISAYRKLLEGEEERLKLSPSPSSRVTVSRASSSRSVRTTRGKRKRVDVEESEASSSVSISHSASATGNVCIEEIDVDGKFIRLKNTSEQDQPMGGWEMIRKIGDTSVSYKYTSRYVLKAGQTVTIWAANAGVTASPPTDLIWKNQNSWGTGEDVKVILKNSQGEEVAQRSTVFKTTIPEEEEEEEEAAGVVVEEELFHQQGTPRASNRSC
notes: Absent from XPO1 immunoprecipitates by western blot

binding result: no binding
B2: LEMD2 (other, human, UniProt Q8NC56 2-503, looked up)
chain: AGLSDLELRRELQALGFQPGPITDTTRDVYRNKLRRLRGEARLRDEERLREEARPRGEERLREEARLREDAPLRARPAAASPRAEPWLSQPASGSAYATPGAYGDIRPSAASWVGSRGLAYPARPAQLRRRASVRGSSEEDEDARTPDRATQGPGLAARRWWAASPAPARLPSSLLGPDPRPGLRATRAGPAGAARARPEVGRRLERWLSRLLLWASLGLLLVFLGILWVKMGKPSAPQEAEDNMKLLPVDCERKTDEFCQAKQKAALLELLHELYNFLAIQAGNFECGNPENLKSKCIPVMEAQEYIANVTSSSSAKFEAALTWILSSNKDVGIWLKGEDQSELVTTVDKVVCLESAHPRMGVGCRLSRALLTAVTNVLIFFWCLAFLWGLLILLKYRWRKLEEEEQAMYEMVKKIIDVVQDHYVDWEQDMERYPYVGILHVRDSLIPPQSRRRMKRVWDRAVEFLASNESRIQTESHRVAGEDMLVWRWTKPSSFSDSER
notes: Absent from XPO1 immunoprecipitates by western blot; also called LEM2

Source: patent publication US20230407298A1 (Johns Hopkins, published 2023)
